Reference: article PMC6960015 (Nature cell biology, 2019)

Biological target: Rabbit skeletal muscle LatB-actin (rabbit, UniProt P68135 1-377)
Experiment: BLI

Kd: 40.3 nM
B1: GST-ArhGAP12 ΔNΔP (568-791) (domain or fragment)
chain: QKKTKKNLKKFLTRRPTLQAVREKGYIKDQVFGSNLANLCQRENGTVPKFVKLCIEHVEEHGLDVDGIYRVSGNLAVIQKLRFAVNHDEKLDLNDSKWEDIHVITGALKMFFRELPEPLFTFNHFNDFVNAIKQEPRQRVTAVKDLIRQLPKPNQDTMQILFRHLKRVIENGEKNRMTYQSIAIVFGPTLLKPERETGNIAVHTVYQNQIVELILLELSTVFGR
